± gives the uncertainty stated by the source.
B1: Ankyrin-1, residues 1405 to 1484; numbered along this chain, P16157 (parent)
chain: MKMAVISEHLGLSWAELARELQFSVEDINRIRVENPNSLLEQSVALLNLWVIREGQNANMENLYTALQSIDRGEIVNMLE

Variants of: B1
Assay: abundance fitness (aPCA) (normalised: wild type 0, dead -1); higher = more abundant; growth selection in yeast, the domain comes from the species named
Conditions: Homo sapiens

In order of rising abundance fitness:
1. MKMAVISEHLGLSWAELARELQFSVEDINRIRVENPNSLLEQSVALLNLPVIREGQNANMENLYTALQSIDRGEIVNMLE  -1 ± 0.26
2. MKMAVISEHRGLSWAELARELQFSVEDINRIRVENPNSLLEQSVALLNLWVIREGQNANMENLYTALQSIDRGEIVNMLE  -0.895 ± 0.16
3. MKMAVISEHLGLSWAELARELQFSVEDINRIRVENPNSLLEYSVALLNLWVIREGQNANMENLYTALQSIDRGEIVNMLE  -0.864 ± 0.28
4. MKMAVISEHSGLSWAELARELQFSVEDINRIRVENPNSLLEQSVALLNLWVIREGQNANMENLYTALQSIDRGEIVNMLE  -0.852 ± 0.22
5. MKMAVISEHLGLSWAELMRELQFSVEDINRIRVENPNSLLEQSVALLNLWVIREGQNANMENLYTALQSIDRGEIVNMLE  -0.827 ± 0.27
6. MKMAVISEHLGLSWAELARELQFSVEDINRIRVENPNSLLEQSVALLNLWVIREGQNANMENLYTALQSIDRGEIVNMLI  -0.682 ± 0.26
7. MKMAVISEHLGLSWAELARELQFSVEDINRIRVENPNSLLEQSVALLNLWVIREMQNANMENLYTALQSIDRGEIVNMLE  -0.661 ± 0.46
8. MKMAVISEHLGLSWAELARELQFSVEDINRIRVENPNSLLEQSVALLNLWVIREGQNANMENLQTALQSIDRGEIVNMLE  -0.594 ± 0.2
9. MKMAVISEHLGLCWAELARELQFSVEDINRIRVENPNSLLEQSVALLNLWVIREGQNANMENLYTALQSIDRGEIVNMLE  -0.577 ± 0.12
10. MKMAVISEHLGLSWAELARELQFMVEDINRIRVENPNSLLEQSVALLNLWVIREGQNANMENLYTALQSIDRGEIVNMLE  -0.487 ± 0.12
11. MKMAVISEHLGLSWAELARELQFSVEDINRIHVENPNSLLEQSVALLNLWVIREGQNANMENLYTALQSIDRGEIVNMLE  -0.294 ± 0.12
12. MKMAVISEHLGLSWAELARELQFSVEDINRIRVENPNSLLEQSVALLNLWVIREGQNANMENLYTALQSIDRFEIVNMLE  -0.284 ± 0.1
13. MKMAVISEHLGLGWAELARELQFSVEDINRIRVENPNSLLEQSVALLNLWVIREGQNANMENLYTALQSIDRGEIVNMLE  -0.237 ± 0.062
14. MKMAVISEHLGQSWAELARELQFSVEDINRIRVENPNSLLEQSVALLNLWVIREGQNANMENLYTALQSIDRGEIVNMLE  -0.233 ± 0.24
15. MKMAVISEHLGLSWAEEARELQFSVEDINRIRVENPNSLLEQSVALLNLWVIREGQNANMENLYTALQSIDRGEIVNMLE  -0.204 ± 0.16
16. MKMAVISEHLGLSWAELARELQFSVEDINRIRVENPNSLLEQSVALLNLWVIREGQNANMENLYTALQSVDRGEIVNMLE  -0.193 ± 0.054
17. MKMAVISEHLGLSWAELARELQFSVEDINRIRVENPNSLLEQSVALLNLWVIREGLNANMENLYTALQSIDRGEIVNMLE  -0.19 ± 0.061
18. MKMAVISEHIGLSWAELARELQFSVEDINRIRVENPNSLLEQSVALLNLWVIREGQNANMENLYTALQSIDRGEIVNMLE  -0.172 ± 0.15
19. MKMAVISEHLGLSWAELARELQFSCEDINRIRVENPNSLLEQSVALLNLWVIREGQNANMENLYTALQSIDRGEIVNMLE  -0.161 ± 0.083
20. MKMAVISEHLGLSWAELARELQFSVEDINRIRVENPNSLLEQSVALLNAWVIREGQNANMENLYTALQSIDRGEIVNMLE  -0.138 ± 0.057
21. MKMAVISEHLGLSWAELARELQFSVEDIIRIRVENPNSLLEQSVALLNLWVIREGQNANMENLYTALQSIDRGEIVNMLE  -0.123 ± 0.16
22. MKMAVISEHLGLSWAHLARELQFSVEDINRIRVENPNSLLEQSVALLNLWVIREGQNANMENLYTALQSIDRGEIVNMLE  -0.104 ± 0.12
23. MKMAVISEHLGLSWAELARELQFSVEDINRIRVENPNSLLEQSVALLNLWVIREGSNANMENLYTALQSIDRGEIVNMLE  -0.097 ± 0.07
24. MKMAVISEHLGLSWAELARELQFSVEDINRIRVENPNSLLEQSVTLLNLWVIREGQNANMENLYTALQSIDRGEIVNMLE  -0.085 ± 0.074
25. MKMAVISEHLGFSWAELARELQFSVEDINRIRVENPNSLLEQSVALLNLWVIREGQNANMENLYTALQSIDRGEIVNMLE  -0.069 ± 0.2
26. MKMAVISEHLGLSWAELARELQFSVEDINRIRVENPNSLLEQSVALLNLWVIREGMNANMENLYTALQSIDRGEIVNMLE  -0.061 ± 0.11
27. MKMAVISEHLGLSWAELARELQFSVEDINRIRVENPNSLLEQSVALLNLWVIREGPNANMENLYTALQSIDRGEIVNMLE  -0.052 ± 0.08
28. MKMAVISEHLGLAWAELARELQFSVEDINRIRVENPNSLLEQSVALLNLWVIREGQNANMENLYTALQSIDRGEIVNMLE  -0.021 ± 0.11
29. MKMAVISEHLGLSWAELARELSFSVEDINRIRVENPNSLLEQSVALLNLWVIREGQNANMENLYTALQSIDRGEIVNMLE  0.018 ± 0.055
30. MKMAVISEHLGLSWSELARELQFSVEDINRIRVENPNSLLEQSVALLNLWVIREGQNANMENLYTALQSIDRGEIVNMLE  0.037 ± 0.06
31. MKMAVISEHLGLSWAELARELQFSVEDINRIRVENPNSLLEQSVALLNLWVIREGQNANMANLYTALQSIDRGEIVNMLE  0.165 ± 0.21
32. MKMAVISEHLGASWAELARELQFSVEDINRIRVENPNSLLEQSVALLNLWVIREGQNANMENLYTALQSIDRGEIVNMLE  0.213 ± 0.085
33. MKMAVISEHLGLSWAELARELQFSVEDINRIRVENPNSLLEQSVALLNLWVIREGQNANHENLYTALQSIDRGEIVNMLE  0.243 ± 0.24
34. MKMAVISEHLGLSWAELARELQFSVEDINRIRVENPNSLLEQSVALLNLWVIREGQNANMQNLYTALQSIDRGEIVNMLE  0.459 ± 0.34

Reference: the Human Domainome abundance scans (Beltran et al. 2025)
